Test results as given in patent US20260035450A1 (Novo Nordisk, published 2026).

T1: recombinant human ANGPTL3 (rhANGPTL3) (SEQ ID NO:1) (human, UniProt Q9Y5C1 17-460)
T1 sequence: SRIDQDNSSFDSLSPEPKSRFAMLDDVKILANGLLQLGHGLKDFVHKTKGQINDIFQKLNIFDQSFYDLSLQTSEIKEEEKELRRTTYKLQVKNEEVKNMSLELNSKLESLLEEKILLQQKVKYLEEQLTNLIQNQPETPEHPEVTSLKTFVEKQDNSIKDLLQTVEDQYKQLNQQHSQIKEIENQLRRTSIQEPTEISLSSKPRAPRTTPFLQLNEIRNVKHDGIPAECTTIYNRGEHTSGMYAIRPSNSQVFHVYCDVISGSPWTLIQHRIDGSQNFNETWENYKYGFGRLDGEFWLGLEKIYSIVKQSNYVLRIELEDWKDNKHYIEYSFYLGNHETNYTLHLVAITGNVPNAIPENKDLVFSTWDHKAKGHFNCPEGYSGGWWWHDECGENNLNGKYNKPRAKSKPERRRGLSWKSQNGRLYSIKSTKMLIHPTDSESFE

B1: tmAb1 (antibody, human IgG1, kappa)
heavy: EVQLLESGGGLVQPGGSLRLSCAASGFNFRSYWMTWVRQAPGKGLEWVSSISSHSTYIYYADSVKGRFTISRDNSKNTLYLQMNSLRAEDTATYYCAREGWYDNWFDPWGQGTLVTVSSASTKGPSVFPLAPSSKSTSGGTAALGCLVKDYFPEPVTVSWNSGALTSGVHTFPAVLQSSGLYSLSSVVTVPSSSLGTQTYICNVNHKPSNTKVDKKVEPKSCDKTHTCPPCPAPEYLGGDSVFLFPPKPKDVLYITREPEVTCVVIDVSHEDPEVKFNWYVDGVEVHNAKTKPREEQYNSTYRVVSVLPVLHRDWLNGKEYKCKVSNKALPKPIEKTISKAKGQRREPQVYTLPPSREEMTKNQVSLWCLVKGFYPSDIAVEWESNGQPENNYKTTPPVLDSDGSFFLYSKLTVDKSRWQQGNVFSCSVMHEALHNHYTQKSLSLSP
chain: DKTHTCPPCPAPEYLGGDSVFLFPPKPKDVLYITREPEVTCVVIDVSHEDPEVKFNWYVDGVEVHNAKTKPREEQYNSTYRVVSVLPVLHRDWLNGKEYKCKVSNKALPKPIEKTISKAKGQRREPQVYTLPPSREEMTKNQVSLSCAVKGFYPSDIAVEWESNGQPENNYKTTPPVLDSDGSFFLVSKLTVDKSRWQQGNVFSCSVMHEALHNHYTQKSLSLSP
light: EIVLTQSPGTLSLSPGERATLSCRASQNIRSPYLAWYQQKPGQAPRLLIYGVSSRAAGIPDRFSGSGSGTDFTLTISRLEPEDFAVYYCQQYDDHPYTFGQGTKLEIKRTVAAPSVFIFPPSDEQLKSGTASVVCLLNNFYPREAKVQWKVDNALQSGNSQESVTEQDSKDSTYSLSSTLTLSKADYEKHKVYACEVTHQGLSSPVTKSFNRGEC
B2: tmAb3 (antibody, human IgG1, kappa)
heavy: EVQLLESGGGLVQPGGSLRLSCAASGFNFESYWMTWVRQAPGKGLEWVSSISSHSTYIYYADSVKGRFTISRDNSKNTLYLQMNSLRAEDTATYYCAREGWYDNWFDPWGQGTLVTVSSASTKGPSVFPLAPSSKSTSGGTAALGCLVKDYFPEPVTVSWNSGALTSGVHTFPAVLQSSGLYSLSSVVTVPSSSLGTQTYICNVNHKPSNTKVDKKVEPKSCDKTHTCPPCPAPEYLGGDSVFLFPPKPKDVLYITREPEVTCVVIDVSHEDPEVKFNWYVDGVEVHNAKTKPREEQYNSTYRVVSVLPVLHRDWLNGKEYKCKVSNKALPKPIEKTISKAKGQRREPQVYTLPPSREEMTKNQVSLWCLVKGFYPSDIAVEWESNGQPENNYKTTPPVLDSDGSFFLYSKLTVDKSRWQQGNVFSCSVMHEALHNHYTQKSLSLSP
chain: DKTHTCPPCPAPEYLGGDSVFLFPPKPKDVLYITREPEVTCVVIDVSHEDPEVKFNWYVDGVEVHNAKTKPREEQYNSTYRVVSVLPVLHRDWLNGKEYKCKVSNKALPKPIEKTISKAKGQRREPQVYTLPPSREEMTKNQVSLSCAVKGFYPSDIAVEWESNGQPENNYKTTPPVLDSDGSFFLVSKLTVDKSRWQQGNVFSCSVMHEALHNHYTQKSLSLSP
light: EIVLTQSPGTLSLSPGERATLSCRASQNIRSPYLAWYQQKPGQAPRLLIYGVSSRAAGIPDRFSGSGSGTDFTLTISRLEPEDFAVYYCQQYDDHPYTFGQGTKLEIKRTVAAPSVFIFPPSDEQLKSGTASVVCLLNNFYPREAKVQWKVDNALQSGNSQESVTEQDSKDSTYSLSSTLTLSKADYEKHKVYACEVTHQGLSSPVTKSFNRGEC
B3: tmAb4 (antibody, human IgG1, kappa)
heavy: EVQLLESGGGLVQPGGSLRLSCAASGFNFESYWMTWVRQAPGKGLEWVSSISSHSTYIYYADSVKGRFTISRDNSKNTLYLQMNSLRAEDTATYYCAREGWYDNWNDPWGQGTLVTVSSASTKGPSVFPLAPSSKSTSGGTAALGCLVKDYFPEPVTVSWNSGALTSGVHTFPAVLQSSGLYSLSSVVTVPSSSLGTQTYICNVNHKPSNTKVDKKVEPKSCDKTHTCPPCPAPEYLGGDSVFLFPPKPKDVLYITREPEVTCVVIDVSHEDPEVKFNWYVDGVEVHNAKTKPREEQYNSTYRVVSVLPVLHRDWLNGKEYKCKVSNKALPKPIEKTISKAKGQRREPQVYTLPPSREEMTKNQVSLWCLVKGFYPSDIAVEWESNGQPENNYKTTPPVLDSDGSFFLYSKLTVDKSRWQQGNVFSCSVMHEALHNHYTQKSLSLSP
chain: DKTHTCPPCPAPEYLGGDSVFLFPPKPKDVLYITREPEVTCVVIDVSHEDPEVKFNWYVDGVEVHNAKTKPREEQYNSTYRVVSVLPVLHRDWLNGKEYKCKVSNKALPKPIEKTISKAKGQRREPQVYTLPPSREEMTKNQVSLSCAVKGFYPSDIAVEWESNGQPENNYKTTPPVLDSDGSFFLVSKLTVDKSRWQQGNVFSCSVMHEALHNHYTQKSLSLSP
light: EIVLTQSPGTLSLSPGERATLSCRASQNIRSPYLAWYQQKPGQAPRLLIYGVSSRAAGIPDRFSGSGSGTDFTLTISRLEPEDFAVYYCQQYDDHPYTFGQGTKLEIKRTVAAPSVFIFPPSDEQLKSGTASVVCLLNNFYPREAKVQWKVDNALQSGNSQESVTEQDSKDSTYSLSSTLTLSKADYEKHKVYACEVTHQGLSSPVTKSFNRGEC
B4: tmAb2 (antibody, human IgG1, kappa)
heavy: EVQLLESGGGLVQPGGSLRLSCAASDFNFRSYWMTWVRQAPGKGLEWVSSISSHSTYIYYADSVKGRFTISRDNSKNTLYLQMNSLRAEDTATYYCAREGWYDNWFDPWGQGTLVTVSSASTKGPSVFPLAPSSKSTSGGTAALGCLVKDYFPEPVTVSWNSGALTSGVHTFPAVLQSSGLYSLSSVVTVPSSSLGTQTYICNVNHKPSNTKVDKKVEPKSCDKTHTCPPCPAPEYLGGDSVFLFPPKPKDVLYITREPEVTCVVIDVSHEDPEVKFNWYVDGVEVHNAKTKPREEQYNSTYRVVSVLPVLHRDWLNGKEYKCKVSNKALPKPIEKTISKAKGQRREPQVYTLPPSREEMTKNQVSLWCLVKGFYPSDIAVEWESNGQPENNYKTTPPVLDSDGSFFLYSKLTVDKSRWQQGNVFSCSVMHEALHNHYTQKSLSLSP
chain: DKTHTCPPCPAPEYLGGDSVFLFPPKPKDVLYITREPEVTCVVIDVSHEDPEVKFNWYVDGVEVHNAKTKPREEQYNSTYRVVSVLPVLHRDWLNGKEYKCKVSNKALPKPIEKTISKAKGQRREPQVYTLPPSREEMTKNQVSLSCAVKGFYPSDIAVEWESNGQPENNYKTTPPVLDSDGSFFLVSKLTVDKSRWQQGNVFSCSVMHEALHNHYTQKSLSLSP
light: EIVLTQSPGTLSLSPGERATLSCRASQNIRSPYLAWYQQKPGQAPRLLIYGVSSRAAGIPDRFSGSGSGTDFTLTISRLEPEDFAVYYCQQYDDHPYTFGQGTKLEIKRTVAAPSVFIFPPSDEQLKSGTASVVCLLNNFYPREAKVQWKVDNALQSGNSQESVTEQDSKDSTYSLSSTLTLSKADYEKHKVYACEVTHQGLSSPVTKSFNRGEC

These binders were tested against T1, recombinant human ANGPTL3 (rhANGPTL3) … (assay: cell-based or functional assay).

In order of rising “Average relative IC50 (inhibition of rhANGPTL3-mediated LPL inhibition)” value:
1. B3  1.3 relative to evinacumab SIA
2. B4  2.5 relative to evinacumab SIA
3. B1  3.7 relative to evinacumab SIA
4. B2  4.8 relative to evinacumab SIA
